Experimental findings from article PMC3526290 are described below.

The data set concerns H3/H4 (FM label on H4 C71) (Xenopus laevis). Nature of the data set: EMSA. Particulars: 0.2 uM H3/H4, 0.4 uM DNA, no chaperone, disome and tetrasome, EMSA deposition: 10 mM Tris, 150 mM NaCl, 0.5 mM TCEP, pH 8.0, on ice, 0.2x TBE native gel, FRET: 10 mM Tris pH 7.5, 150 mM KCl, 2 mM MgCl, 1% glycerol.

With 80 bp 601 DNA, the binding signal came to 44 % tetrasomes.
